# Data reported in paper PMC8809517, “Cofactor-independent RNA editing by a synthetic S-type PPR protein”.
# Numbering of substitutions follows the chain as printed.
# T1: GFP-9S library array, motif 4 ND N98G;D124H (synthetic construct, N98G;D124H)
# T1 chain: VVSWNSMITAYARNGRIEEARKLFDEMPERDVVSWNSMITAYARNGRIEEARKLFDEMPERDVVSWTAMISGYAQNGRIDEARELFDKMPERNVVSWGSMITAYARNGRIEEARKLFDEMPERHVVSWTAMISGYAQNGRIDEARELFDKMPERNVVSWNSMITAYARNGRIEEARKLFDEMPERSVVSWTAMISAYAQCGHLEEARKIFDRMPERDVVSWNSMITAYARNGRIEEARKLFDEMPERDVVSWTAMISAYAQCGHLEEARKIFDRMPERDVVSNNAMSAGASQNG
# T2: GFP-9S library array, motif 4 ND D124E (synthetic construct, D124E)
# T2 chain: T1 chain with G98N, H124E
# T3: GFP-9S library array, motif 4 ND N98L;D124A (synthetic construct, N98L;D124A)
# T3 chain: T1 chain with G98L, H124A
# T4: GFP-9S library array, motif 4 ND N98A;D124I (synthetic construct, N98A;D124I)
# T4 chain: T1 chain with G98A, H124I
# T5: GFP-9S library array, motif 4 ND N98M;D124C (synthetic construct, N98M;D124C)
# T5 chain: T1 chain with G98M, H124C
# How the values were obtained:
# Assay in all cases: high-throughput RNA pulldown from lysate on Ni-NTA beads; HRP: 50 mM Tris pH 8, 150 mM NaCl, 1 mM beta-mercaptoethanol, 50 ug/ml BSA, 3 ug/ml yeast RNA, 0.5% heparin; ITC and FP: Tris pH 8, 200 mM KCl, 5% glycerol; MST: 50 mM Tris pH 8, 200 mM NaCl, 1 mM DTT, BSA, heparin, 0.05% Tween 20
# Conditions in all cases: tags: N-terminal His-eGFP
# [1] = target: T1, GFP-9S library array, motif 4 ND …
# [2] = target: T2, GFP-9S library array, motif 4 ND D124E
# [3] = target: T3, GFP-9S library array, motif 4 ND …
# [4] = target: T4, GFP-9S library array, motif 4 ND …
# [5] = target: T5, GFP-9S library array, motif 4 ND …
Binder,Kd ([1]; label: 5' Cy5),Kd ([2]; label: 5' Cy5),Kd ([3]; label: 5' Cy5),Kd ([4]; label: 5' Cy5),Kd ([5]; label: 5' Cy5),Kd ([1]; label: 5' IRDye 800CW),Kd ([2]; label: 5' IRDye 800CW),Kd ([3]; label: 5' IRDye 800CW),Kd ([4]; label: 5' IRDye 800CW),Kd ([5]; label: 5' IRDye 800CW)
AUUACACGUGA (ssRNA) [Cy5-rpoA],91.1 nM,10.5 nM,47.4 nM,103 nM,99.7 nM,–,–,–,–,–
AUUAGACGUGA (ssRNA) [Cy5-rpoA-G],108 nM,276 nM,71.4 nM,107 nM,68.8 nM,–,–,–,–,–
AUUAAACGUGA (ssRNA) [IR-rpoA-A],–,–,–,–,–,114 nM,139 nM,90.9 nM,203 nM,85.3 nM
AUUAUACGUGA (ssRNA) [IR-rpoA-U],–,–,–,–,–,136 nM,3.54 nM,43.4 nM,249 nM,193 nM
